Test results reported in article PMC7438732, “The H^+-Translocating Inorganic Pyrophosphatase From Arabidopsis thaliana Is More Sensitive to Sodium Than Its Na^+-Translocating Counterpart From Methanosarcina mazei” (Frontiers in Plant Science, 2020).

Substrate: O=P(O)(O)OP(=O)(O)O
Assay: cells, lysate or membranes
Conditions: 0 mM added NaCl, 100 mM KCl, pH 7.2, 30 °C, Mg2PPi substrate without excess Mg2+, Na+ from Na4PPi present

B1: AVP1 (Arabidopsis thaliana) (protein)
chain: MVAPALLPELWTEILVPICAVIGIAFSLFQWYVVSRVKLTSDLGASSSGGANNGKNGYGDYLIEEEEGVNDQSVVAKCAEIQTAISEGATSFLFTEYKYVGVFMIFFAAVIFVFLGSVEGFSTDNKPCTYDTTRTCKPALATAAFSTIAFVLGAVTSVLSGFLGMKIATYANARTTLEARKGVGKAFIVAFRSGAVMGFLLAASGLLVLYITINVFKIYYGDDWEGLFEAITGYGLGGSSMALFGRVGGGIYTKAADVGADLVGKIERNIPEDDPRNPAVIADNVGDNVGDIAGMGSDLFGSYAEASCAALVVASISSFGINHDFTAMCYPLLISSMGILVCLITTLFATDFFEIKLVKEIEPALKNQLIISTVIMTVGIAIVSWVGLPTSFTIFNFGTQKVVKNWQLFLCVCVGLWAGLIIGFVTEYYTSNAYSPVQDVADSCRTGAATNVIFGLALGYKSVIIPIFAIAISIFVSFSFAAMYGVAVAALGMLSTIATGLAIDAYGPISDNAGGIAEMAGMSHRIRERTDALDAAGNTTAAIGKGFAIGSAALVSLALFGAFVSRAGIHTVDVLTPKVIIGLLVGAMLPYWFSAMTMKSVGSAALKMVEEVRRQFNTIPGLMEGTAKPDYATCVKISTDASIKEMIPPGCLVMLTPLIVGFFFGVETLSGVLAGSLVSGVQIAISASNTGGAWDNAKKYIEAGVSEHAKSLGPKGSEPHKAAVIGDTIGDPLKDTSGPSLNILIKLMAVESLVFAPFFATHGGILFKYF
Question: With B1 as the protein, how does the K0.5 read?
Answer: 0.14 ± 0.08 mM
